Earlier results in publication PMC7229808.
pKd: −log10 of the molar value.

Target: PCNA (Saccharomyces cerevisiae) (UniProt P15873)
Experiment: NMR titration

Sequence of UniProt P15873 (P15873 whole entry): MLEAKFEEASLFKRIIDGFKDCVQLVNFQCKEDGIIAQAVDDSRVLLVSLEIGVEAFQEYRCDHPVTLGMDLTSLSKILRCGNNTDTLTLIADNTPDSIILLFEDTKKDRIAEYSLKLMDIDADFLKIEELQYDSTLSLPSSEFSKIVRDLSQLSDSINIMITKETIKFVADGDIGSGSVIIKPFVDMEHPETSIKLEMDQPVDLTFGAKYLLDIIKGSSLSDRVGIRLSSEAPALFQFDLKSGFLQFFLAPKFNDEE

Substance: Rev1 BRCT (from UniProt P12689)
- pKd: 4.11
